# Results published in patent US20140072613A1, “Compositions and Methods for Treating Cutaneous Scarring” (priority 2012, published 2014).
# T1: DMPK(h) (human), Q09013
# T1 chain: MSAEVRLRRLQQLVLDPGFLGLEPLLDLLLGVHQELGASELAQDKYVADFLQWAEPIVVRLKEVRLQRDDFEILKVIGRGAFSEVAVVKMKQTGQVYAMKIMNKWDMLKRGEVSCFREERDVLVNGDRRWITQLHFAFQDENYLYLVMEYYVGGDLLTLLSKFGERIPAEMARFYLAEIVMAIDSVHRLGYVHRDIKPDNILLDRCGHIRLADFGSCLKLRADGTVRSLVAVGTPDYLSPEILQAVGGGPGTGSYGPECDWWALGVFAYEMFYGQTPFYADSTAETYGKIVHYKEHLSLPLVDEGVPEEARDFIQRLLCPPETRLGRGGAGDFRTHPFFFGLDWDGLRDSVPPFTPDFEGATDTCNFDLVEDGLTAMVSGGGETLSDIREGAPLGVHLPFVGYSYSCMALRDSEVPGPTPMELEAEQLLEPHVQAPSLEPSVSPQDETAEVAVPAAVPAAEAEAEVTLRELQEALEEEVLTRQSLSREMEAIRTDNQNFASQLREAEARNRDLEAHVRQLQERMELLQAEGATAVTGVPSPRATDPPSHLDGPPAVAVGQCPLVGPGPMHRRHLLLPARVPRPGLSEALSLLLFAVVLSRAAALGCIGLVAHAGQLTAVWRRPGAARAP
# T2: DRAK1(h) (human), Q9UEE5
# T2 chain: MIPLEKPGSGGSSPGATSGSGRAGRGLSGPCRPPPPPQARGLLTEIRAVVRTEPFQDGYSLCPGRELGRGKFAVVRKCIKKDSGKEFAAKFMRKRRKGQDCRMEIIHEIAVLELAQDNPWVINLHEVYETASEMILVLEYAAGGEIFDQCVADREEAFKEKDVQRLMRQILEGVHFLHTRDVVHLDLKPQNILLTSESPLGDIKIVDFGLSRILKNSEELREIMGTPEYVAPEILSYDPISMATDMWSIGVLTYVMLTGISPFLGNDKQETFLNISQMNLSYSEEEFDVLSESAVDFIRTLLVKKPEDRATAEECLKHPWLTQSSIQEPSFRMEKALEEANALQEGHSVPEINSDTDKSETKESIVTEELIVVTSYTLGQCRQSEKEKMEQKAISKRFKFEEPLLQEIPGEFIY
# T3: EphA2(h) (human), P29317
# T3 chain: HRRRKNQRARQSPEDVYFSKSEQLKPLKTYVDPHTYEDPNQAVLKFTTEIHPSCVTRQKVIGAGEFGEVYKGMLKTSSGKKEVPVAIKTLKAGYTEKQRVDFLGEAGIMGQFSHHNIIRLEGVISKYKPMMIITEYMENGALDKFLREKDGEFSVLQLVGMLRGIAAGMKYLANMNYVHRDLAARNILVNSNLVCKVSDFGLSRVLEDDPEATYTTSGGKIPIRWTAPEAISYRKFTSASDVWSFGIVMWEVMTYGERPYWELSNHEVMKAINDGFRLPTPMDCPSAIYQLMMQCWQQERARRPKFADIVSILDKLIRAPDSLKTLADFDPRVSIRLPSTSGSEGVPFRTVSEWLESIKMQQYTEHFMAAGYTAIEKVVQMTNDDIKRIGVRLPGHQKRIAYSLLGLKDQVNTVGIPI
# T4: FGFR2(h) (human), P21802
# T4 chain: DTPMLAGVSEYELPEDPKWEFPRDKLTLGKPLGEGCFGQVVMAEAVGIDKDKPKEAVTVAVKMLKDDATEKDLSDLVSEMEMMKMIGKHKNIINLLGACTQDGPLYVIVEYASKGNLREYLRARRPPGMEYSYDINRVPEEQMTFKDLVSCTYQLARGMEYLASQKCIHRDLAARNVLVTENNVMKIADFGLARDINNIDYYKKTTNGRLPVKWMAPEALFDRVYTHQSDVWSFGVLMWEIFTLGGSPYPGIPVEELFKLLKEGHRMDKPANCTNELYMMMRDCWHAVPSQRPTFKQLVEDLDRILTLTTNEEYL
# T5: Neurokinin 2 (off-target receptor) (Homo sapiens (Human)), P21452
# T5 chain: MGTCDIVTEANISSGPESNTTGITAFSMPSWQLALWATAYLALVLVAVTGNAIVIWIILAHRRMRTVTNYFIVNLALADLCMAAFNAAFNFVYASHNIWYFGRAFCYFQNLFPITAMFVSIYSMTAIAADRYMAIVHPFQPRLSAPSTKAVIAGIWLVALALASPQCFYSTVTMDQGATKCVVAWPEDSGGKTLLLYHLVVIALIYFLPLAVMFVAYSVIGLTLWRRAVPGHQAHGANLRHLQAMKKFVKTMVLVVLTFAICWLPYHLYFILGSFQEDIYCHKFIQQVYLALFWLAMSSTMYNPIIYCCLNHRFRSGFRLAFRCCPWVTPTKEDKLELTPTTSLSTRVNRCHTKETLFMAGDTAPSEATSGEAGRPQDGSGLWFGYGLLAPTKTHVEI
# What was measured:
# [1] = biological target: Abl(H8396P)(h) (human), P00519; experiment: cell-based or functional assay
# Chain of Abl(H8396P)(h) (human), P00519 (P00519 27-1130, stated change not applied): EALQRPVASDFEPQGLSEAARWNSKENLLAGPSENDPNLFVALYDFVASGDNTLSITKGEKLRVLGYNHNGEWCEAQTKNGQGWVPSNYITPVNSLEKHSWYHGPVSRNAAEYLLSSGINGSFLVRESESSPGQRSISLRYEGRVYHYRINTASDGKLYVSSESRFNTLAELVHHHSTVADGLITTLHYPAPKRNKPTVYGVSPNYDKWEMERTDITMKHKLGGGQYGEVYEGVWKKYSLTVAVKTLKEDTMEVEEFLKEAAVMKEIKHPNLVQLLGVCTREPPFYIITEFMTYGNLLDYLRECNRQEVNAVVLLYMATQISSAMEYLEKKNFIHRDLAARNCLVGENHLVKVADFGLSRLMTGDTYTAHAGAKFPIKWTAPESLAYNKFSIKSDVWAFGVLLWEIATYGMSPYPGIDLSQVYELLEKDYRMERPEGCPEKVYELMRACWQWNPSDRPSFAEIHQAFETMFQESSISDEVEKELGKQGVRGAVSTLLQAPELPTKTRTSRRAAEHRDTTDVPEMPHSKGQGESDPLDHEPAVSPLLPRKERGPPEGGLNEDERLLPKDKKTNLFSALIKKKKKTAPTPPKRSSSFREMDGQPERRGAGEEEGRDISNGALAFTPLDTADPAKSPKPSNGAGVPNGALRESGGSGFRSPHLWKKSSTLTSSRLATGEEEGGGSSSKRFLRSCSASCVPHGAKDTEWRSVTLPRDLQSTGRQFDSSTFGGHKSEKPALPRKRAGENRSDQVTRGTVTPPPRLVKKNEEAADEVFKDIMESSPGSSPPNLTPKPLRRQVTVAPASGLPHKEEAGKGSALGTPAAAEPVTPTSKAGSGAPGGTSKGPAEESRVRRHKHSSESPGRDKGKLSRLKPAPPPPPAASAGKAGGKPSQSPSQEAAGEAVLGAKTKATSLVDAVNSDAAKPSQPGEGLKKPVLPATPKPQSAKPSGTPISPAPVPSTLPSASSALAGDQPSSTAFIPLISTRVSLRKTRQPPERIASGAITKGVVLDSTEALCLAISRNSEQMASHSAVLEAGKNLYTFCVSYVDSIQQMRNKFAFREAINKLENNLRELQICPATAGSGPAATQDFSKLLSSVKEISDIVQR
# CK1δ(h) (human), P48730 = experiment: cell-based or functional assay
# Chain of CK1δ(h) (human), P48730 (P48730 1-294, stated change not applied): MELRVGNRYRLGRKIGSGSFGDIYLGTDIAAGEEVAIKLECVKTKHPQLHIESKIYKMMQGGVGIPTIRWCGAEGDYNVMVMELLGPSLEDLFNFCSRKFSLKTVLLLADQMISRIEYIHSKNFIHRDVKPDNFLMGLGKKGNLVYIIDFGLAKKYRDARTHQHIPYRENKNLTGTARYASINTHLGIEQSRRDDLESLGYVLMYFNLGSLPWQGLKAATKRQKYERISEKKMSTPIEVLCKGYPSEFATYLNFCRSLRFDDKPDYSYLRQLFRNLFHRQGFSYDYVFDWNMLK
# [2] = biological target: CaMKIIδ(h) (human), Q13557; experiment: cell-based or functional assay
# Chain of CaMKIIδ(h) (human), Q13557 (Q13557 whole entry, stated change not applied): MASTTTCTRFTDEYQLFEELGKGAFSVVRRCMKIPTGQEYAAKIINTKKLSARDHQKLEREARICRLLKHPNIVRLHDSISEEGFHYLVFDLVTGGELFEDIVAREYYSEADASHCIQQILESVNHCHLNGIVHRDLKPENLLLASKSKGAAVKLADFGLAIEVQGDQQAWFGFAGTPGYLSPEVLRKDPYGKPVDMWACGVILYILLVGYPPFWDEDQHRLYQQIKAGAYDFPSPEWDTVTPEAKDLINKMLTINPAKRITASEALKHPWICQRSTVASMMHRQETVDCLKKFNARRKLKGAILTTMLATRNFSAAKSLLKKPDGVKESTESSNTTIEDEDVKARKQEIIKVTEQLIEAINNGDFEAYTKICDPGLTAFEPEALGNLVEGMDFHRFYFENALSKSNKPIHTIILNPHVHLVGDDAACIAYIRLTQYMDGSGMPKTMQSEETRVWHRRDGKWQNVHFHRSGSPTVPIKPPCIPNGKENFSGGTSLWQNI
# [3] = biological target: CaMKIδ(h) (human), Q8IU85; experiment: cell-based or functional assay
# Chain of CaMKIδ(h) (human), Q8IU85 (Q8IU85 whole entry, stated change not applied): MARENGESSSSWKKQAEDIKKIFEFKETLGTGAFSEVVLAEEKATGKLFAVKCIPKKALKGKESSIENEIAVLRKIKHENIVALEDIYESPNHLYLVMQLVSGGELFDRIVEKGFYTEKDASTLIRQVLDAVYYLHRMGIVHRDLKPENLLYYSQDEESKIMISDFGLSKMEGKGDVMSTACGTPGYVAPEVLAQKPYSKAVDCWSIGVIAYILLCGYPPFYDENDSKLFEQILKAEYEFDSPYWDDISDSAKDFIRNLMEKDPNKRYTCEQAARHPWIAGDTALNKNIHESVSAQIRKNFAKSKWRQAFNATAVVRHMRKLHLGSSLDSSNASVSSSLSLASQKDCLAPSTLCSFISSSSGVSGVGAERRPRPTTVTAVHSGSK
# PKCβI(h) (human), P05771 = experiment: cell-based or functional assay
# Chain of PKCβI(h) (human), P05771 (P05771 whole entry): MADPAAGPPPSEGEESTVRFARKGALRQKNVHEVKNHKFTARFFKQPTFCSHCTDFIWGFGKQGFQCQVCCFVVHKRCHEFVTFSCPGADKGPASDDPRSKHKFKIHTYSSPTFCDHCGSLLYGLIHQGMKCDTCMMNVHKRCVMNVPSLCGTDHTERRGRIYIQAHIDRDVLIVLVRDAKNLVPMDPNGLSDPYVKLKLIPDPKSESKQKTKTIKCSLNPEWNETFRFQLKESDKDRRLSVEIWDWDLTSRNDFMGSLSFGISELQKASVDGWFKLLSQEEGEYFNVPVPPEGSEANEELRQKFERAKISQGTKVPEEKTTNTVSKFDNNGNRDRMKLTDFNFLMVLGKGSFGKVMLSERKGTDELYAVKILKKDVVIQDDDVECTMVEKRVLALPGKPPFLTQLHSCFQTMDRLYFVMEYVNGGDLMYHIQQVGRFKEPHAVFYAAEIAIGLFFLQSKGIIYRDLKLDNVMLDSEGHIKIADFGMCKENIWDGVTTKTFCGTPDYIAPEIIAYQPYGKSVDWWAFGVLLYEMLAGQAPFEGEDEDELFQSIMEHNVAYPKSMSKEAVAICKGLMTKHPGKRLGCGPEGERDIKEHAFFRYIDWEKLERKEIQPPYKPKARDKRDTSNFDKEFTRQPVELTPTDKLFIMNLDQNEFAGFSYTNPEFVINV
# PKG1α(h) (human), Q13976 = experiment: cell-based or functional assay
# Chain of PKG1α(h) (human), Q13976 (Q13976 whole entry): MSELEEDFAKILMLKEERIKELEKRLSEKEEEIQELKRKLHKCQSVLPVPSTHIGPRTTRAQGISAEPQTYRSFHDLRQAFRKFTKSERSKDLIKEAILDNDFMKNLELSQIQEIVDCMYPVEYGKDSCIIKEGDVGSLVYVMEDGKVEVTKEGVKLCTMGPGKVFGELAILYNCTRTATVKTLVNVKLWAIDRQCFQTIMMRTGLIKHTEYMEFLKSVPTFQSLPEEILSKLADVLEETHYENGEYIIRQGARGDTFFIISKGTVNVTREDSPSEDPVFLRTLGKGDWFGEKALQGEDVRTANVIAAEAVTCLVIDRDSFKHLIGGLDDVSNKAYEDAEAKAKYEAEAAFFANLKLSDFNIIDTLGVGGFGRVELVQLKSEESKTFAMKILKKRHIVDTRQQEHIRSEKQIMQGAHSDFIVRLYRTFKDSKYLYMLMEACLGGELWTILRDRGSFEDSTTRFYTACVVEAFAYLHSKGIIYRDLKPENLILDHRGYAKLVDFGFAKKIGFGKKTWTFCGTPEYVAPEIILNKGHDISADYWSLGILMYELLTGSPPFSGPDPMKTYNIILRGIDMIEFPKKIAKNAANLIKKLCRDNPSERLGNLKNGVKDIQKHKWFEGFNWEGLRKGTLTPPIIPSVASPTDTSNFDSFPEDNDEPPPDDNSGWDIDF
# CaMKI(h) (human), Q14012 = experiment: cell-based or functional assay
# DMPK(h) (human), Q09013 = biological target: T1, DMPK(h) (human), Q09013; experiment: cell-based or functional assay
# DRAK1(h) (human), Q9UEE5 = biological target: T2, DRAK1(h) (human), Q9UEE5; experiment: cell-based or functional assay
# [4] = biological target: EGFR(L861Q)(h) (human), P00533; experiment: cell-based or functional assay
# EphA2(h) (human), P29317 = biological target: T3, EphA2(h) (human), P29317; experiment: cell-based or functional assay
# FGFR2(h) (human), P21802 = biological target: T4, FGFR2(h) (human), P21802; experiment: cell-based or functional assay
# Fes(h) (human), P07332 = experiment: cell-based or functional assay
# Fgr(h) (human), P09769 = experiment: cell-based or functional assay
# LOK(h) (human), O94804 = experiment: cell-based or functional assay
# [5] = biological target: MAPKAP-K2(h) (human), P49137; experiment: cell-based or functional assay
# [6] = biological target: MAPKAP-K3(h) (human), Q16644; experiment: cell-based or functional assay
# MSK1(h) (human), O75582 = experiment: cell-based or functional assay
# Chain of MSK1(h) (human), O75582 (O75582 whole entry): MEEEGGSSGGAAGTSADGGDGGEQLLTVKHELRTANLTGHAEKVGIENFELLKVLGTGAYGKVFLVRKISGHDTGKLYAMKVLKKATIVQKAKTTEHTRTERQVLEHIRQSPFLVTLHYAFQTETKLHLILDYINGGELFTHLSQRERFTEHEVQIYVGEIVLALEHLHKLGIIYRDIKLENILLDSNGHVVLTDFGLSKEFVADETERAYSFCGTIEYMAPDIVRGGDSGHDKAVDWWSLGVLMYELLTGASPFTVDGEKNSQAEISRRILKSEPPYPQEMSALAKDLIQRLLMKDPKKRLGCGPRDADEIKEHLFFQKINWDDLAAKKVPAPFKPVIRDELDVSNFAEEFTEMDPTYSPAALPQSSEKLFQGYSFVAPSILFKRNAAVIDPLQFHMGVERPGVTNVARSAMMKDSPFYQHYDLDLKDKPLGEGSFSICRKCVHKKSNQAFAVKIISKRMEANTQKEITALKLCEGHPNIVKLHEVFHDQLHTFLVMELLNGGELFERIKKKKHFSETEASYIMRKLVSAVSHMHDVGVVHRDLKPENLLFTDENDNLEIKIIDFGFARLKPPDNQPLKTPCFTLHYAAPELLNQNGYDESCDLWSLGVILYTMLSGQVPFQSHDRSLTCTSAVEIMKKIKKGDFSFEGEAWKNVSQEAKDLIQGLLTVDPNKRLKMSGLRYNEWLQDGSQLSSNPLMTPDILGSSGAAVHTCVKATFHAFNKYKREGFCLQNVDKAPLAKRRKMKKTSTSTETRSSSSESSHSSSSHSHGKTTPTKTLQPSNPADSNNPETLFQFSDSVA
# Pim-1(h) (human), P11309 = experiment: cell-based or functional assay
# TrkB(h) (human), Q16620 = experiment: cell-based or functional assay
# Yes(h) (human), P07947 = experiment: cell-based or functional assay
# [7] = biological target: Angiotensin 2 (off-target receptor); experiment: Cerep binding assay, competition with a radiolabelled ligand
# [8] = biological target: Bombesin (off-target receptor); experiment: as above
# [9] = biological target: Melanocortin 4 (off-target receptor) (Homo sapiens (Human)), P32245; experiment: as above
# [10] = biological target: T5, Neurokinin 2 (off-target receptor) …; experiment: as above
# [11] = biological target: Neuropeptide Y (off-target receptor); experiment: as above
# [12] = biological target: Serotonin 2A (off-target receptor) (Homo sapiens (Human)), P28223; experiment: as above
# Chain of Serotonin 2A (off-target receptor) (Homo sapiens (Human)), P28223 (P28223 whole entry): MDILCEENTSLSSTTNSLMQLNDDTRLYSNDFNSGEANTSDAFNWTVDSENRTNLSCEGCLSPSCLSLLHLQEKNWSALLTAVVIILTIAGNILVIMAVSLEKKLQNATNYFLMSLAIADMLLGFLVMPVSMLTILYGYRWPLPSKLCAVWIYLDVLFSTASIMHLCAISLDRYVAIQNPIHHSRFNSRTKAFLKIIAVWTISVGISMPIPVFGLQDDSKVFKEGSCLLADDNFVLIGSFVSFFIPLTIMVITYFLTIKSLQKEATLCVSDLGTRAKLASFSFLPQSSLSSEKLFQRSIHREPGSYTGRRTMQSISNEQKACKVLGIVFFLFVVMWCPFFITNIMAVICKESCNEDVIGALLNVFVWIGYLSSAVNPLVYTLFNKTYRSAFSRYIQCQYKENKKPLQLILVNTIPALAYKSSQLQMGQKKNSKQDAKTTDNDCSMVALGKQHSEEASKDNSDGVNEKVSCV
# [13] = biological target: Small conductance calcium activated K+ channel; experiment: as above
# [14] = biological target: Vasoactive intestinal peptide (off-target receptor); experiment: as above
binder,measurement,setting,value
FAKLAARLYRKALARQLGVAA [MMI-0300],"% activity, 100 µM",[1],101%
same,"% activity, 100 µM","CK1δ(h) (human), P48730",92%
same,"% activity, 100 µM",[2],1%
same,"% activity, 100 µM",[3],10%
same,"% activity, 100 µM","PKCβI(h) (human), P05771",78%
same,"% activity, 100 µM","PKG1α(h) (human), Q13976",64%
YARAAARQARAKALARQLGVAA (modifications not checked) [MMI-0100],IC50 (kinase activity),"CaMKI(h) (human), Q14012",11.7 µM
same,IC50 (kinase activity),[3],45.8 µM
same,IC50 (kinase activity),"DMPK(h) (human), Q09013",34.1 µM
same,IC50 (kinase activity),"DRAK1(h) (human), Q9UEE5",78.3 µM
same,IC50 (kinase activity),[4],128 µM
same,IC50 (kinase activity),"EphA2(h) (human), P29317",181 µM
same,IC50 (kinase activity),"FGFR2(h) (human), P21802",172 µM
same,IC50 (kinase activity),"Fes(h) (human), P07332",174 µM
same,IC50 (kinase activity),"Fgr(h) (human), P09769",141 µM
same,IC50 (kinase activity),"LOK(h) (human), O94804",47.6 µM
same,IC50 (kinase activity),[5],12.1 µM
same,IC50 (kinase activity),[6],15.8 µM
same,IC50 (kinase activity),"MSK1(h) (human), O75582",102 µM
same,IC50 (kinase activity),"Pim-1(h) (human), P11309",71.7 µM
same,IC50 (kinase activity),"TrkB(h) (human), Q16620",4.6 µM
same,IC50 (kinase activity),"Yes(h) (human), P07947",114 µM
same,% inhibition,[7],< 30%
same,% inhibition,[8],< 30%
same,% inhibition,[9],< 30%
same,% inhibition,[10],< 30%
same,% inhibition,[11],< 30%
same,% inhibition,[12],< 30%
same,% inhibition,[13],< 30%
same,% inhibition,[14],< 30%
KAFAKLAARLYRKALARQLGVAA [MMI-0400],"% activity, 100 µM",[1],105%
same,"% activity, 100 µM","CK1δ(h) (human), P48730",93%
same,"% activity, 100 µM",[2],2%
same,"% activity, 100 µM",[3],17%
same,"% activity, 100 µM","PKCβI(h) (human), P05771",78%
same,"% activity, 100 µM","PKG1α(h) (human), Q13976",58%
